In PMC3034218 (Journal of molecular biology, 2004):

B1: τ protein (τ subunit of the clamp-loader), B. subtilis, full-length (natural protein, UniProt P09122 1-563, looked up)
chain: MSYQALYRVFRPQRFEDVVGQEHITKTLQNALLQKKFSHAYLFSGPRGTGKTSAAKIFAKAVNCEHAPVDEPCNECAACKGITNGSISDVIEIDAASNNGVDEIRDIRDKVKFAPSAVTYKVYIIDEVHMLSIGAFNALLKTLEEPPEHCIFILATTEPHKIPLTIISRCQRFDFKRITSQAIVGRMNKIVDAEQLQVEEGSLEIIASAADGGMRDALSLLDQAISFSGDILKVEDALLITGAVSQLYIGKLAKSLHDKNVSDALETLNELLQQGKDPAKLIEDMIFYFRDMLLYKTAPGLEGVLEKVKVDETFRELSEQIPAQALYEMIDILNKSHQEMKWTNHPRIFFEVAVVKICQTSHQSAADLPEVDMLMKKIQQLEQEVERLKTTGIKAAAESPKKEAPRVPKGGKSNYKAPVGRIHEILKEATRPDLDLLRNSWGKLLAHLKQQNKVSHAALLNDSEPVAAGSAAFVLKFKYEIHCKMVAEDNNGVRTNLEQILESMLGKRMDLIGVPEAQWGKIREEFLEDHQQENEGSNEPAEEDPLIAEAKKLVGADLIEIKD
B2: His-tagged DnaB, Bacillus stearothermophilus (enzyme, UniProt Q9X4C9 1-454, looked up)
chain: MSELFSERIPPQSIEAEQAVLGAVFLDPAALVPASEILIPEDFYRAAHQKIFHAMLRVADRGEPVDLVTVTAELAASEQLEEIGGVSYLSELADAVPTAANVEYYARIVEEKSVLRRLIRTATSIAQDGYTREDEIDVLLDEADRKIMEVSQRKHSGAFKNIKDILVQTYDNIEMLHNRDGEITGIPTGFTELDRMTSGFQRSDLIIVAARPSVGKTAFALNIAQNVATKTNENVAIFSLEMSAQQLVMRMLCAEGNINAQNLRTGKLTPEDWGKLTMAMGSLSNAGIYIDDTPSIRVSDIRAKCRRLKQESGLGMIVIDYLQLIQGSGRSKENRQQEVSEISRSLKALARELEVPVIALSQLSRSVEQRQDKRPMMSDIRESGSIEQDADIVAFLYRDDYYNKDSENKNIIEIIIAKQRNGPVGTVQLAFIKEYNKFVNLERRFDEAQIPPGA

Assays:
[1] = biological target: τ domain III, B. subtilis (B. subtilis); experiment: SEC
τ (Escherichia coli) = τ (Escherichia coli) (UniProt P06710); conditions: cited from earlier work
Sequence of τ (Escherichia coli) (P06710 2-643): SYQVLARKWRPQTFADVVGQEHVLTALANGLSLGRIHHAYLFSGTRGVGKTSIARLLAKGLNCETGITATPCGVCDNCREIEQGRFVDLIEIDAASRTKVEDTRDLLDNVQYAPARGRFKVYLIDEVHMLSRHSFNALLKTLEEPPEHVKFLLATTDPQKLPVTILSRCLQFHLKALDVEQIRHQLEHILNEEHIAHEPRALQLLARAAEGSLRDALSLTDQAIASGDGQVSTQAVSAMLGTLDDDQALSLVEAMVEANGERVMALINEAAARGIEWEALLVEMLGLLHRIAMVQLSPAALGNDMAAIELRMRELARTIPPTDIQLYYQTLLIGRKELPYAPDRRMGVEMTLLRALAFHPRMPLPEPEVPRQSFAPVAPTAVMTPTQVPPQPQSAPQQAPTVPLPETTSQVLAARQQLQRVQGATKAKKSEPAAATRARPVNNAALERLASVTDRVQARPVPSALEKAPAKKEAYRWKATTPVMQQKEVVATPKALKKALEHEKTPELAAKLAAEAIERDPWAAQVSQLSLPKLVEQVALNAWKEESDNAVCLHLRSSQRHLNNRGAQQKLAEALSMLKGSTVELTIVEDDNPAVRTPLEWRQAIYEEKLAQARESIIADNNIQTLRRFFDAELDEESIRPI

atomic force microscopy = biological target: the molecule itself; experiment: atomic force microscopy
[2] = biological target: B1; experiment: SPR

τ domain III, B. subtilis (domain or fragment)
stoichiometry N [1]: 2

DnaB (from UniProt P0ACB0)
Kd (τ (Escherichia coli)): 4 nM

B1
binding result (atomic force microscopy): binds

B2
Kd [2]: 2.3 nM
